System: K4 kissing-loop RNA reporter
Assay: apparent KD of K4 kissing-loop reporter; higher = weaker reporter binding
Settings: Eterna round: R107
Description: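 RNA-MaP round R107: designed RNA switches with theophylline, tryptophan, arginine or FMN aptamers are transcribed on-chip within common flanks. They are titrated with a labelled K4 kissing-loop RNA reporter in RNA-MaP buffer (100 mM Tris pH 7.5, 80 mM KCl, 4 mM MgCl2), without ligand or with the indicated ligand. Median apparent KD per design.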

[1] = input ligand: theophylline 20 uM
[2] = input ligand: tryptophan 2.4 mM
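Also: bound reporter read as fluorescence of individual clusters on recovered sequencing chips by microscopy, with normalized cluster intensities fitted with a binding model.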

Row | Sequence | apparent KD of K4 kissing-loop reporter (input ligand: FMN 200 uM) | apparent KD of K4 kissing-loop reporter (input ligand: arginine 13.2 mM) | apparent KD of K4 kissing-loop reporter (input ligand: none) | apparent KD of K4 kissing-loop reporter [1] | apparent KD of K4 kissing-loop reporter [2]
1 | AACUCUCAGACACUUGAGUGAUGUUCAGACCGAGGACCGGUACGGCCGCCACUCGGGUCUGAGAGAGGUUAUCAAAGAUAGCCAA [Omei KL Tryp A SS A v7] | 280 nM | 222 nM | 336 nM | 292 nM | 905 nM
2 | AGCGAGUGAUGUUCGCUGAUCAUGUGAAGUUAGGAUAUAUACUUGCAUAGAAGGAACUAUUACAUGACAUUAGAGGCAGUAGUUC [FMN A SS t7b] | 165 nM | 173 nM | 167 nM | 171 nM | 128 nM
3 | UUUAAAUAUAGUGAUGUUAUAUAACAAUGACGAGGACCGGUACGGCCGCCACUCGAGAGAGAUAAUGGUCAUGCAAAUGUAUGUC [#15 K4 Tryptophan A Same State] | 674 nM | 684 nM | 789 nM | 746 nM | 615 nM
4 | AAUGAUCGUAUGGCGAGGUACUCGUGUUCGAAGGAUAUUAAUAGAAUAAGAAGGUCGAAAUCGUGUCUGGAAGUGAUGUUUCCAU [theeternabot_sameState_KL_FMN_A_32] | 111 nM | 106 nM | 106 nM | 123 nM | 89.6 nM
5 | GGUAGCAUGGCGGCCGCCACUUAAUCACUCCAGGAUGAGGAAUAUAAGCAGUGAUGUUGCUAAGUAAGGACCGGGCCAUGCUACC | 269 nM | 271 nM | 327 nM | 354 nM | 201 nM
6 | AUUCUAUUGUGAAGGAGCGCGACUAGUAGUGAUGUUACUAUAUGACUUUAGUCUUAAUUCUCGCAGGUAGGUCGCACAAUAUAUA [JR_Nu_SSArginiB_Sub028] | 913 nM | 594 nM | 796 nM | 732 nM | 755 nM
7 | UUCUUGAUGGAAACAUCGAGGAUUACUGAUACCAGUAUCGAUAGAUACCCUUGGCAGCAGAAUCAGUGAUCACGAGUGAUGUUCG [Ex Theophylline A K4 10] | 655 nM | 551 nM | 733 nM | 564 nM | 569 nM
8 | CAUAGGAAACUAUGUUUCUCUCUUACUGAAGGAGCGCGUGAAAACGCAGGUAGGUCGCAGAUUUUGAGAGUGAUGUUCUCAAUAA [Ex Arginine A K4 18] | 128 nM | 167 nM | 139 nM | 155 nM | 91.7 nM
9 | UGACUGGACUGAAGGAGCGCUGAACUCCUAGUGAUGUUAGGACAACGAGACAAAGUCUCGCGGCAGGUAGGUCGCAGUCUAGUCU | 159 nM | 119 nM | 121 nM | 145 nM | 131 nM
10 | GUUACGCAUGGAAGGAGCGCGAUAAUAUUAAGUGAGUGAUGUUCACAAAGAAAAUAAAUAACGCAGGUAGGUCGCCAUGUGUAAC [Ex Arginine B K4 4] | 79.3 nM | 93.1 nM | 80.8 nM | 97.8 nM | 81.8 nM
11 | AUUUAGACGAGUGAUGUUCGUGUUAAUACAGAGGAUAUGCGUGAUUGCAGAAGGCUGUAUUUAUAUAUGUUAUGUGGUUUUAAAA [whbob_Ex_FMNA__2th187] | 76.6 nM | 115 nM | 87.2 nM | 99.7 nM | 66.3 nM
12 | GGUAGCAUGGCGGCCGCCACUCUUCAUUAGUGAUGUUAAUGCCGAGUGCGCUAACUCCGCCAGGAGAGGACCGGGCCAUGCUACC | 397 nM | 302 nM | 406 nM | 407 nM | 185 nM
13 | UGAUAGCCAGUGAUGUUGGCAUAUACUGAAGGAGCGCGUGAAAACGCAGGUAGGUCGCAGUUCCUUGCCAAUUGAUCGAAAGAUC [#08 K4 Arginine A Exclusion] | 162 nM | 200 nM | 183 nM | 207 nM | 162 nM
14 | GCCGUACGCACGGAUACCAGCACUCGUUGAGUGAUGUUCACGGUGUGGUAUUCAACGGGCUGCCCUUGGCAGCCGUGCGUACGGC | 135 nM | 91.2 nM | 134 nM | 139 nM | 144 nM
15 | GCCGUACGCAUGGAUACCAGCUACUAGAGUGAUGUUCUAUGGCCCUGCCAAUGGAGCUGUAGCCCUUGGCAGCCAUGCGUACGGC | 130 nM | 125 nM | 105 nM | 122 nM | 126 nM
16 | UUUUUCGCGUUUGAUACCAGCAGAGUUGUUCGUGUCUGGAGCGUGAGUGAUGUUCAUGUCUGCCCUUGGCAGCAAACGGGAGAAG [KL-XTheo-B14] | 137 nM | 113 nM | 123 nM | 97.1 nM | 134 nM
17 | UUGGUUGUCGUAGGAUAUGUAGGAUAUUCUAAAAUAUGAAGUGAUGUUUCUAUAAUAAGAAGAAGGACAGAAGGACGAUAACCAU [FmnBS 2 - Salish transfer #DoubleAptamer] | 84.7 nM | 100 nM | 111 nM | 103 nM | 99.1 nM
18 | GUAAGACCGGGACUCCAGUGAUGUUGGAGGCAGGAUAUCCAGUCGAGGAGAAGGGCCAGGGAUAUCGAGCUGCUCGGUUCGUAGU [Rerareatra] | 81.8 nM | 101 nM | 103 nM | 107 nM | 66.5 nM
19 | GGAGUUACCUGGGAUACCAGUCGGAGUCUCAGAGCACAGAGUGAUGUUCUGGGAUGUUUCGGCCCUUGGCAGCUCUGGGACUCCA [#2 Exclusion - Theophylline B Attempt #14 (HarryS)] | 386 nM | 359 nM | 403 nM | 265 nM | 351 nM
20 | GCCGUAGAUCGAAGGAGCGUGCAAGAAUCGUAGUGAUGUUACGGAGAGUGUCACGCCGUCGCACAGGUAGGUCGCGAUCUACGGC | 71 nM | 76.4 nM | 84.1 nM | 69.2 nM | 66.8 nM
21 | AUAGAAAAGUGGCACCCUCACUAAAACAGUCGAGGACCGGUACGGCCGCCACUCGCGCGCUUUAGUGAUGUUAAAGCUAUGCAAA | 407 nM | 358 nM | 380 nM | 407 nM | 105 nM
22 | UGUCAUUGGUCGGCCGCCACUAGGACCGGGUUUUACCUAGUGAUGUUAGUAUGAACGGCCGCCACUAGGACCGGGACCGAUGACU [KL-SSTryp-B25 #DoubleAptamer] | 343 nM | 195 nM | 322 nM | 442 nM | 113 nM

Row | Sequence | apparent KD of K4 kissing-loop reporter (input ligand: FMN 200 uM) | apparent KD of K4 kissing-loop reporter (input ligand: arginine 13.2 mM) | apparent KD of K4 kissing-loop reporter (input ligand: none) | apparent KD of K4 kissing-loop reporter [1] | apparent KD of K4 kissing-loop reporter [2]
23 | AAGGUAUCUAGAUGCUAGCAACAACUAGAUACCAGCAUCGAAAGAUGCCCUUGGCAGCUAGCAGUGAUGUUGCUAGCAAUAAGAA [Design4] | 152 nM | 130 nM | 131 nM | 158 nM | 131 nM
24 | GCUAUGGUAGGAAGGAGCGCGGACGAUAUUUAUCGAGUGAUGUUCGAUUAAUUAAUUUUAACGCAGGUAGGUCGCCUACUAUAGC [Arginine B K4 28] | 135 nM | 82.2 nM | 105 nM | 88.2 nM | 106 nM
25 | UGACUGGAUGGAAGGAGCGCUAAACUCCUAGUGAUGUUAGGGACACGAGACAAAGUCUUGAGGCAGGUAGGUCGCCAUCUAGUCU [FiskerMod 8 - Jieux - Same State - Arginine B] | 379 nM | 211 nM | 251 nM | 250 nM | 241 nM
26 | GCCGUAGAUGGAAGGAGCGUGUCAAAGUGAUGUUUUGAUUAACUCCCUUAGGGAAAGAUGGCACAGGUAGGUCGCCAUCUACGGC | 104 nM | 74.2 nM | 102 nM | 131 nM | 90.4 nM
27 | GUACGCUUCCGAGUGAUGUUCGGAAAUCGCUAGGAUAUCGCUUUUGCGAGAAGGAGCGCAAUGAGGAAACUCGUUGUUAGUGUAC [FMN A 27] | 164 nM | 146 nM | 177 nM | 171 nM | 163 nM
28 | AGGGACGAUAGCGAUACCAGAGGUCGCAAAUUCGCGCCGUUUUUUAGGAAGUGAUGUUUUCUCCCUUGGCAGCGCCCUUAGAGUU [theeternabot_exclusion_KL_Theo_B_47] | 881 nM | 435 nM | 945 nM | 795 nM | 688 nM
29 | UGUAUGUGAUUUGAUACCAGACCAUCUUGUGAGAAAUGAGUGAUGUUUAUUUUGGUUUGGGUCCCUUGGCAGCAAAUCGCAUACU [KL-SSTheoB24] | 507 nM | 356 nM | 505 nM | 419 nM | 439 nM
30 | UAUAUAUGAUGUGAUACCAGUGAAGAGCCAGUGAUGUUGGUAGAACUGGUAUAUAAAUAACACCCUUGGCAGCACAAUCACGUAU [whbob_Ex_Theo_B_sa97] | 160 nM | 152 nM | 170 nM | 212 nM | 164 nM
31 | UAUUCUGUUCGAAAGAACGGAAUUUCGGAAGGAGCGAGAGAAAUCUCAGGUAGGUCGCCGAAAUUAUUAGGUAGUGAUGUUACCU [Arginine A K4 5] | 126 nM | 116 nM | 142 nM | 124 nM | 123 nM
32 | UAUUAAUUGUCAGGAUAUCGAAAUCGAGUGAUGUUCGUAUAUCGACGAUAGUCGAUAUUAUUUAUACGAGAAGGGACAUUAUUUA [JR_SSFMNB_Sub003] | 347 nM | 572 nM | 615 nM | 615 nM | 386 nM
33 | GCGCGUCAUGUCAGCGGUGACACUGUCGAUACCAGCGCCGCAAGGCGCCCUUGGCAGCGACGCGCUGGAGUGAUGUUCCAGCGUG [#2 Exclusion - Theophylline A Attempt #14 (HarryS)] | 154 nM | 148 nM | 164 nM | 143 nM | 169 nM
34 | UGCAUCGUUGGCAGGCGCACCACACAGUGUAAGGAUAUGAUGUCGUUCAGAAGGUACGCUUGACCGAGUGAUGUUCGGGAGUGCC [theeternabot_sameState_KL_FMN_A_9] | 224 nM | 200 nM | 218 nM | 245 nM | 196 nM
35 | GGACGACAGUCGGCCGCCACUCACAGCAGCCAGUGAUGUUGGAUUGUAGCGGAGUGAUGUUUCGCGAGGACCGGGACUGCAGUCC [Same State Tryptophan B GF 14] | 190 nM | 171 nM | 227 nM | 226 nM | 199 nM
36 | CUCGAGUGAUGUUCCUUUAUUUAUACAGAUACCAGUGAAUUUUAACACCCUUGGCAGCUGGUUGUAUCUUUGUUUUUUACACAUG [JR_Nu_ExcTheophyA_Sub025] | 204 nM | 128 nM | 205 nM | 270 nM | 155 nM
37 | UGGACCAAGGAGUGAUGUUCCAAAUGUGAUACCAGCCACGAAAGUGGCCCUUGGCAGCACUGCCAAAGGACGAAAGUCCGGUCCU [#SwitchBubble 10 #StaticStem #K4Early] | 371 nM | 352 nM | 382 nM | 659 nM | 280 nM
38 | UGAUAGGACAGAAGGAGCGGUAGUGAUGUUGCCAAAAGGGUAAGGUGUCAAAAGACACCCUACCAGGUAGGUCGCUGUCCUAUCU | 83.9 nM | 93.2 nM | 84.6 nM | 87 nM | 83.4 nM
39 | CGGCGCGGCGCGGCCGCCACUGCGCCUGGGCGCUCGCCGAGUGAUGUUCGUCGGCGGUCGGGUGGCAGGACCGGGUGCCGGCCCG [BDazzled - #20 SS Tryptophan B] | 295 nM | 227 nM | 217 nM | 169 nM | 141 nM
40 | AUUUUGAGUGAUGUUCAUAUCUAUUCUGAAGGAGCGCUAAAUAAGGCAGGUAGGUCGCGGAAUAUAUAUAUAUAUAUAUAUAUAU [KL-SSArg-A30] | 538 nM | 809 nM | 711 nM | 624 nM | 537 nM
41 | GCAUCCAUGGCAGGAUAUAGGUUCAUGGAGUGAUGUUCCAUAACCCGAGUGAUGUUCGUUAUCCACCUAGAAGGGCCAUGGAUGC | 208 nM | 173 nM | 206 nM | 196 nM | 180 nM
42 | UCCUAGGCUCGAAAGAGCCUAGGAUUAACUCAGGAUAUCCGGAAACGGAGAAGGGAGUAACUAGUGAUGUUAGGGAUUCCCUAUU | 208 nM | 94 nM | 109 nM | 87.9 nM | 92.7 nM
43 | AGUGAUGUUGUGUUGUGUUAGGGAAGUGAUCGAGGACCGGUACGGCCGCCACUCGAGUGAUGAGUGAGUGAUGUUUGUUUAGGGA [whbob_SS_Tryp_A_m8] | 926 nM | 1290 nM | 395 nM | 3230 nM | 375 nM
44 | UAGACCUACUCAGGAUAUCCGCAGUGAUGUUGCGGUUGGCCUGAGCGACAUGAAAAUCUUACUAAAGGAGAAGGGAGAGGGUUAC [Ratiteus] | 123 nM | 79.2 nM | 94.3 nM | 69.7 nM | 88.4 nM
